Patent US11994512B2, “Single-cell genomic methods to generate ex vivo cell systems that recapitulate in vivo biology with improved fidelity” (Massachusetts Institute of Technology, priority 2018, dated 2024)

B1: Q9CPY1 (protein, UniProt Q9CPY1 1-128, looked up)
chain: MAGSVPWAASRRLWGWVPSACRSFSLGVPRLAFVRLTLPPPKVVDRWNEKRALFGVYDNIGILGNFEKHPKELIKGPVWLRGWRGNELQRCVRKKKFVGNRMFIEDLHNLNKRISYLYKHFNRHGKYR
modifications: full-length
B2: Q9CVI2 (protein, UniProt Q9CVI2 1-245, looked up)
chain: MGKRDNRVAYMNPIAMARSRGPIQSSGPTIQDYLNRPRPTWEEVKEQLEKKKKGSKALAEFEEKMNENWKKELEKHREKLLSGNESSSKKRQKKKKEKKKSGRYSSSSSSSSDSSSSSSDSEDEDKKQTKRRKKKKSRCHKSPESSGSDSASDSKDGSKKKKKSKDVTEREKDTKGLSKKRKMYEDKPLSSESLSESDCGEVQAKRKKSGEERERTTDKAKKRRKHKKHSKKKKKKAASSSSDSP
modifications: full-length
B3: Q9CXS4 (protein, UniProt Q9CXS4 1-252, looked up)
chain: MRRTRSAVATGPREQRRSGATGGLSGGESRAQRSRSRTRAGAGGGGGAVGPQPSAKPRPKPPPRAQEAAAEEPPPAVTPAASVSALDLGEQRERWETFQKRQRLSFEGAAKLLLDTFEYQGLVKHTGGCHCGAVRFEVWASADLHIFDCNCSICKKKQNRHFIVPASRFKLLKGAESITTYTFNTHKAQHTFCKRCGVQSFYTPRSNPGGFGIAPHCLDEGTVRSVVTEEFNGSDWERAMKEHKTIKNMSKE
modifications: full-length
B4: Q9D6X6 (protein, UniProt Q9D6X6 1-382, looked up)
chain: MAGIPGLFILLVLLCVFMQVSPYTVPWKPTWPAYRLPVVLPQSTLNLAKADFDAKAKLEVSSSCGPQCHKGTPLPTYEEAKQYLSYETLYANGSRTETRVGIYILSNGEGRARGRDSEATGRSRRKRQIYGYDGRFSIFGKDFLLNYPFSTSVKLSTGCTGTLVAEKHVLTAAHCIHDGKTYVKGTQKLRVGFLKPKYKDGAGGDNSSSSAMPDKMKFQWIRVKRTHVPKGWIKGNANDIGMDYDYALLELKKPHKRQFMKIGVSPPAKQLPGGRIHFSGYDNDRPGNLVYRFCDVKDETYDLLYQQCDAQPGASGSGVYVRMWKRPQQKWERKIIGIFSGHQWVDMNGSPQDFNVAVRITPLKYAQICYWIKGNYLDCREG
modifications: full-length
B5: Q9D1C1 (protein, UniProt Q9D1C1 1-179, looked up)
chain: MASQNRDPAAASVAAVRKGAEPCGGAARGPVGKRLQQELMILMTSGDKGISAFPESDNLFKWVGTIHGAAGTVYEDLRYKLSLEFPSGYPYNAPTVKFLTPCYHPNVDTQGNICLDILKDKWSALYDVRTILLSIQSLLGEPNIDSPLNTHAAELWKNPTAFKKYLQETYSKQVSSQDP
modifications: full-length
B6: Q9CWY4 (protein, UniProt Q9CWY4 1-129, looked up)
chain: MQSPLTIPVPVPVLRLPRGPDGFSRGFASDGRRTILRPEVGEGHIQDPPESQEQRARATLRERYLRSLLAMVGHPVSFTLHEGVHVTAQFGATDLDVANFYVSQLQTPIGVQAEALLRCSDIISYSFKL
modifications: full-length
B7: Q9D3P9 (protein, UniProt Q9D3P9 1-169, looked up)
chain: MRGMNLQLVCLTLLAFSSWSLCSDSEEDVRALEADLLTNMHTSKISKASPPSWKMTLLNVCSLINNVNSPAEEAGDMHDDDLVGKRKLPLVLDGFSLEAMLTIFQLQKICRSRAFQHWEIIQEDILDNVNDKNEKEEVIKRKIPYILKRQLYENKPRRPYILKRGSYYY
modifications: full-length
B8: Q9CZT6 (protein, UniProt Q9CZT6 1-276, looked up)
chain: MADDLGDEWWENQPAAASSPEQSGGEEGGDTEMTQQDTAPVPEKTQQPTECFLTQTKEPKAEDSRKTRKWKKKKISDILAKSEPKPGTPEDLQKLIRDHYSSSRSVIELEELHLPDSCFLKANDLTHSLSSYLKEICPKWVKLRKTHNEKKSVLMLILCSSAVRALELIRSLTAFKGDAKVMKLFAKHIKVQEQVKLLEKRVIHLGVGTPGRIKELVKQDGLHLNPLKFLVFDWNWRDQKLRRMMDIPEIRKEVFELLDMGVFSLCKSDSLKLGLF
modifications: full-length
B9: Q9D6F4 (protein, UniProt Q9D6F4 1-552, looked up)
chain: MVSVQKVPAIALCSGVSLALLHFLCLAACLNESPGQNSKDEKLCPENFTRILDSLLDGYDNRLRPGFGGPVTEVKTDIYVTSFGPVSDVEMEYTMDVFFRQTWIDKRLKYDGPIEILRLNNMMVTKVWTPDTFFRNGKKSVSHNMTAPNKLFRIMRNGTILYTMRLTISAECPMRLVDFPMDGHACPLKFGSYAYPKSEMIYTWTKGPEKSVEVPKESSSLVQYDLIGQTVSSETIKSITGEYIVMTVYFHLRRKMGYFMIQTYIPCIMTVILSQVSFWINKESVPARTVFGITTVLTMTTLSISARHSLPKVSYATAMDWFIAVCFAFVFSALIEFAAVNYFTNIQMQKAKKKISKPPPEVPAAPVLKEKHTETSLQNTHANLNMRKRTNALVHSESDVKSRTEVGNHSSKTSAVQESSEATPKAHLASSPNPFSRANAAETMSAAARGLSSAASPSPHGTLRPASLGSASTRPAFGSRLGRIKTTVNTTGAAGNVSATPPPPAPPPSGSGTSKIDKYARILFPVTFGAFNMVYWVVYLSKDTMEKSESLM
modifications: full-length
B10: Q9D009 (protein, UniProt Q9D009 1-231, looked up)
chain: MSLPVVRLVWLGRVHYSELLALQEHWLRRLQADPRPGTLSGTKAGVLLVCEPAGPVYTGGLRGGLTPEETTRLRALGAEVRATGRGGLATFHGPGQLLCHPVLDLRLLGLRLRTHVAALEACAVRLCELRGLQGARARPPPYTGVWLGERKICAIGVRCGRHITSHGLALNCSTDLTWFEHIVPCGLVGTGVTSLSEALQRLVTVDEVMPSFLVAFKETFKCTLISEDSPS
modifications: full-length
B11: Q9CXC3 (protein, UniProt Q9CXC3 1-338, looked up)
chain: MKLPLTFCRLLSRLNRFSVKASPPVSFSTFSYLCSQKKKNSYEAVDQAKYSRLVRSVLSRGPAQTPESLFKEDDVLYGPVSKHKAAEPEPQARVPQHCFPIFNEERTGKPHTDASSSPLKIPLQRNSIPSVTRILQQTMPPEQSFFLERWKERMVLELGEDGFAEYTSNVFLQGKQFHKALESILSPQENLTGGEEHPQCGYIESIQHILTEISGVQALESAVQHEALKYVGLLDCVAEYRGKLCVIDWKTSEKPKPLIRNTYDNPLQVVAYMGAVNHDAHYSFQVQCGLIVVAYKDGSPAHPHFMDEELCSKYWAKWLLRLEEYTEKQKNLSAPEPA
modifications: full-length
B12: Q9D816 (protein, UniProt Q9D816 1-490, looked up)
chain: MDPVLVLVLTLSCLLLLSLWRQNSGRGKLPPGPTPFPIIGNILQIDIKNISKSFNYFSKVYGPVFTLYFGSKPTVVVHGYEAVKEALDDLGEEFSGRGSFQIFERINNDLGVIFSNGTKWKELRRFSIMTLRSFGMGKRSIEDRIQEEASCLVEELRKANGSLCDPTFILSCAPSNVICSVIFHNRFDYKDEKFLNLMERLNENFKILNSPWMQVYNALPTLINYLPGSHNKVIKNFTEIKSYILGRVKEHQETLDMDNPRDFIDCFLIKMEQEKHNPHSEFTIESLMATVTDIFVAGTETTNITLRYGLLLLLKHTEVTAKVQAEIDHVIGRHRSPCMQDRTRMPYTDAMVHEIQRYIDLIPNNVPHAATCNVRFRSYFIPKGTELVTSLTSVLHDDKEFPNPEVFDPGHFLDENGNFKKSDYFMPFSIGKRMCVGEALARTELFLILTTILQNFNLKSLVDTKDIDTTPVANTFGRVPPSYQLYFIPR
modifications: full-length
B13: Q9CQU5 (protein, UniProt Q9CQU5 1-252, looked up)
chain: MADAEKNAVAEKNNAVATKEVLAEAAAILEPVGLQEEAELPAKIMEEFMRNSRKKDKLLCSQLQVVNFLQTFLAQEDTEQSPDALASEDASRQKATETKEQWKDMKATYMDHVDVIKCALSEALPQVKEAHRKYTELQKAFEQLEAKKRVLEEKLQLAQKQWVLQQKRLQNLTKISAEVKRRRKRALEKLDGSHQELETLKQQAGQEQEKLQRNQSYLQLLCSLQNKLVISEGKAEDKDVKGRALTAKSKSP
modifications: full-length

Test system: intracellular proteome of ENR+CD and ENR organoids
Assay: LC-MS/MS TMT proteomics of ENR+CD versus ENR organoids
Assay type: cell-based, C57BL/6 mice
Conditions: for Average logFC: ENR+CD versus ENR organoids, sample pairs in aggregate (n=4, 2 technical replicates from two biological donors); for M1-1 Log2 Median Normalized / M1-2 Log2 Median Normalized / M2-1 Log2 Median Normalized / M2-2 Log2 Median Normalized: protein abundance ratio ENR+CD versus ENR organoids, LC-MS/MS TMT proteomics; for M1-1 Log2 Median Normalized: sample pair M1-1; for M1-2 Log2 Median Normalized: sample pair M1-2; for M2-1 Log2 Median Normalized: sample pair M2-1; for M2-2 Log2 Median Normalized: sample pair M2-2; for change: up = enriched in ENR+CD, down = enriched in ENR, FDR<0.05 and log fold change cut-off

Molecule | Average logFC | M1-1 Log2 Median Normalized | M1-2 Log2 Median Normalized | M2-1 Log2 Median Normalized | M2-2 Log2 Median Normalized | change
B1 | −1.278 | −0.801 | −0.766 | −2.0015 | −1.543 | down
B2 | −1.186 | −1.385 | −1.072 | −1.0115 | −1.275 | down
B3 | −1.1404 | −1.106 | −1.141 | −0.9445 | −1.649 | down
B4 | 1.179 | 1.521 | 1.393 | 0.7475 | 1.055 | up
B5 | −1.255 | −1.316 | −0.925 | −1.1505 | −1.63 | down
B6 | −1.168 | −0.742 | −0.855 | −1.6895 | −1.387 | down
B7 | 1.285 | 1.731 | 0.439 | 0.8595 | 2.111 | up
B8 | −1.131 | −1.275 | −0.965 | −0.8705 | −1.413 | down
B9 | 1.263 | 0.695 | 0.98 | 1.4175 | 1.959 | up
B10 | −2.176 | −0.836 | −2.401 | −2.1745 | −2.621 | down
B11 | −1.487 | −1.486 | −0.854 | −1.7905 | −1.7 | down
B12 | 1.132 | 0.664 | 1.318 | 0.5735 | 1.971 | up
B13 | −1.13 | −1.159 | −0.699 | −1.1625 | −1.13 | down
